The results in this text go back to patent US20250002610A1 (Genmab, published 2025).

Experiment [1] has as its target human DR4 with death domain deletion on ExpiCHO-S cells (human). Put plainly: flow cytometry, ExpiCHO-S cells expressing human DR4, average ± SEM. (Flow cytometry measures light scatter and fluorescence of single cells or particles in a stream.)
Experiment [2] addresses T1, human DR4 (Death Receptor 4), cell surface expressed on human tumor cell lines (human, UniProt O00220 24-468).
T1 construct: also called TNFRSF10A; TRAIL-R1
T1 sequence: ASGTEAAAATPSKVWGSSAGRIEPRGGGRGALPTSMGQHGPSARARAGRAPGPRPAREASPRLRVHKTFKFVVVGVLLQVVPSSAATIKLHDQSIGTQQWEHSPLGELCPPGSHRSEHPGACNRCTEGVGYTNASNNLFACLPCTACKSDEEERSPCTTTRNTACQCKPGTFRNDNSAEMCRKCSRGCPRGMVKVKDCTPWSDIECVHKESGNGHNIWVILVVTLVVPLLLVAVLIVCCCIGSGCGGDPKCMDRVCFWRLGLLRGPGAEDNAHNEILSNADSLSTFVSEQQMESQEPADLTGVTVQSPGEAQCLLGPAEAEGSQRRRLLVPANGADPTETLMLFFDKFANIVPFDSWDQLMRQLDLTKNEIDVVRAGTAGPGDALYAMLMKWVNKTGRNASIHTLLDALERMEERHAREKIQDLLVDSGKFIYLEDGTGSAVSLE
The experiment can be described thus: flow cytometry, HCT-116 cells, n = 2.

Experiment [3] addresses T1, human DR4 (Death Receptor 4), cell …. The experiment can be described thus: flow cytometry, MDA-MB-231 cells, average ± SEM.
Experiment [4] has the same target. Put plainly: flow cytometry, A549 cells, n = 1.
The target is the same in experiment [5]. Put plainly: flow cytometry, MDA-MB-231 cells, n = 3.
For experiment [6] the target is unchanged. Put plainly: flow cytometry, MDA-MB-231 cells, average ± SEM. The source holds these as a separate data set.
For experiment [7] the target is unchanged. The experiment can be described thus: flow cytometry, HCT-116 cells, n = 3.
Experiment [8] shares this target. Put plainly: flow cytometry, A549 cells, average ± SEM.
Experiment [9] shares this target. The experiment can be described thus: flow cytometry, MDA-MB-231 cells, n = 1.

human DR4 with death domain deletion on ExpiCHO-S cells (human), sequence (chain, as listed by the source limits assumed, stated change not applied): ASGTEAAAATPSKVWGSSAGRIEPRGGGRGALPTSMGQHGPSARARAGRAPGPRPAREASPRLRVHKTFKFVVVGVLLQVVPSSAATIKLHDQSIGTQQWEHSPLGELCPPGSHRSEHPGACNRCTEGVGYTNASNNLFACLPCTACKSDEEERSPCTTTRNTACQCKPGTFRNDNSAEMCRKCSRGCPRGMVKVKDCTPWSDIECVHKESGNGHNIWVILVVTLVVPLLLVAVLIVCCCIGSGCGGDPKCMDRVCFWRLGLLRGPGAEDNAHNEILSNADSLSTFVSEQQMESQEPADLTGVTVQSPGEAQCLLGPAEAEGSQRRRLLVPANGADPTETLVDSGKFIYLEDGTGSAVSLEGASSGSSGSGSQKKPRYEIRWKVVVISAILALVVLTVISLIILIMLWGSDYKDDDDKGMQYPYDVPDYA

B1: IgG1-DR4-FERR (antibody, V domains shown)
VH: QVQLQESGPGLVKPSGTLSLTCAVSGGSISSYSWWSWIRQPPGKGLEWIGELYHSGSTNYNPSLKSRVTISVDKSKNQFSLKLRSVTAADTAVYYCVRGVATIDYWGQGTLVTVSS
VL: QSALTQPPSASGSPGQSVTISCTGTSSDVGGYNFVSWYQQDPGKAPKLLIYEVTKRPSGVPDRFSGSKSGNTASLTVSGLQAEDEADYYCSSYAGSNNVMFGGGTKLTVLG
notes: Bivalent monoclonal IgG1 lambda
As to B1, the EC50 (commonly the concentration giving half of the maximal effect) in [1] was 0.14 µg/mL; in experiment [2], 0.16 µg/mL; in experiment [3], 0.25 µg/mL; in [4], 0.51 µg/mL; in experiment [5], 0.37 µg/mL; in experiment [6] it was 0.32 µg/mL. Further, the EC50 was found to be 0.11 µg/mL in [7], 0.32 µg/mL in [8] and 0.33 µg/mL in experiment [9].
